Starred links: 1 amine or outer side, 2 acyl side, 3 side chain; linkers in the order of their positions; H or OH if unused. Positions of bridges follow the written chain, without caps; N, C: chain ends. Non-standard residues stand in square brackets, D forms with d. Primed or numbered codes have the meaning given here. No end group written: not given here. mXylyl(3) = bridging moiety between the two residues given in brackets; Tyr(OMe) = O-methyl tyrosine, COc1ccc(C[C@H](N[*:1])C(=O)[*:2])cc1; mXylyl″ = bridging moiety between the two marked residues; Trp(7-aza) = N[C@@H](Cc1c[nH]c2ncccc12)C(=O)O; mXylyl(4) = bridging moiety between residues; NMePhe(4-F) = CN[C@@H](Cc1ccc(F)cc1)C(=O)O; pXylyl = bridging moiety between residues; PEG2000 = polyethylene glycol, 2000 Da; Phe(4-F) = N[C@@H](Cc1ccc(F)cc1)C(=O)O; mXylylene = c1cc(C[*:1])cc(C[*:2])c1; oXylylene = c1ccc(C[*:2])c(C[*:1])c1; Phg(2-OMe)′ = not defined here; dChg = N[C@@H](C(=O)O)C1CCCCC1; Chg = N[C@H](C(=O)O)C1CCCCC1; Phg = N[C@H](C(=O)O)c1ccccc1; Tle = CC(C)(C)[C@H](N)C(=O)O; NMeS = CN[C@@H](CO)C(=O)O; NMeA = CN[C@@H](C)C(=O)O; Nva = CCC[C@H](N)C(=O)O; Sar = CNCC(=O)O
B1: R3003 (peptide)
peptide: Ac-[Nva]CYEN[Tle]Y[Trp(7-aza)]EYP[Phg]P-NH2
SMILES: CCC[C@H](NC(C)=O)C(=O)N[C@@H](CS)C(=O)N[C@@H](Cc1ccc(O)cc1)C(=O)N[C@@H](CCC(=O)O)C(=O)N[C@@H](CC(N)=O)C(=O)N[C@H](C(=O)N[C@@H](Cc1ccc(O)cc1)C(=O)N[C@@H](Cc1c[nH]c2ncccc12)C(=O)N[C@@H](CCC(=O)O)C(=O)N[C@@H](Cc1ccc(O)cc1)C(=O)N1CCC[C@H]1C(=O)N[C@H](C(=O)N1CCC[C@H]1C(N)=O)c1ccccc1)C(C)(C)C
B2: R3004 (peptide)
peptide: Ac-[Nva]CYNN[Tle]E[Trp(7-aza)]EYP[Phg][Tle]-NH2
SMILES: CCC[C@H](NC(C)=O)C(=O)N[C@@H](CS)C(=O)N[C@@H](Cc1ccc(O)cc1)C(=O)N[C@@H](CC(N)=O)C(=O)N[C@@H](CC(N)=O)C(=O)N[C@H](C(=O)N[C@@H](CCC(=O)O)C(=O)N[C@@H](Cc1c[nH]c2ncccc12)C(=O)N[C@@H](CCC(=O)O)C(=O)N[C@@H](Cc1ccc(O)cc1)C(=O)N1CCC[C@H]1C(=O)N[C@H](C(=O)N[C@H](C(N)=O)C(C)(C)C)c1ccccc1)C(C)(C)C
B3: R3049 (peptide)
peptide: Ac-[Nva]C[Phg]T[Trp(7-aza)]EY[NMeS]HC[Nva]-NH2
modifications: linker 2-10 via oXylylene
SMILES: CCC[C@H](NC(=O)[C@@H]1CSCc2ccccc2CSC[C@H](NC(=O)[C@H](CCC)NC(C)=O)C(=O)N[C@@H](c2ccccc2)C(=O)N[C@@H]([C@@H](C)O)C(=O)N[C@@H](Cc2c[nH]c3ncccc23)C(=O)N[C@@H](CCC(=O)O)C(=O)N[C@@H](Cc2ccc(O)cc2)C(=O)N(C)[C@@H](CO)C(=O)N[C@@H](Cc2c[nH]cn2)C(=O)N1)C(N)=O
B4: R3053 (peptide)
peptide: [Nva]CCN[Tle][Phg]C[Tle][NMeS]C[Tle]-NH2
modifications: linker (positions not given here) via mXylylene; also: mXylyl bicyclo: linked cysteines not given here
B5: R3057 (peptide)
peptide: MCVERFCD[Tle]Y[Trp(7-aza)]EYP[Phg][Nva]-NH2
modifications: linker 2-7 via mXylyl(4); not fully specified; printed as [mXylyl(2,7)]M-C-V-E-R-F-C-D-Tbg-Y-azaTrp-E-Y-P-Phg-Nvl-NH2
B6: R3005 (peptide)
peptide: Ac-[Nva]CY[Trp(7-aza)][Sar][Tle][Nva][Trp(7-aza)]EYP[Phg]P-NH2
SMILES: CCC[C@H](NC(C)=O)C(=O)N[C@@H](CS)C(=O)N[C@@H](Cc1ccc(O)cc1)C(=O)N[C@@H](Cc1c[nH]c2ncccc12)C(=O)N(C)CC(=O)N[C@H](C(=O)N[C@@H](CCC)C(=O)N[C@@H](Cc1c[nH]c2ncccc12)C(=O)N[C@@H](CCC(=O)O)C(=O)N[C@@H](Cc1ccc(O)cc1)C(=O)N1CCC[C@H]1C(=O)N[C@H](C(=O)N1CCC[C@H]1C(N)=O)c1ccccc1)C(C)(C)C
B7: R3006 (peptide)
peptide: Ac-YEN[Tle]Y[Trp(7-aza)]EY[Sar][Nva][NMeS]-NH2
SMILES: CCC[C@H](NC(=O)CN(C)C(=O)[C@H](Cc1ccc(O)cc1)NC(=O)[C@H](CCC(=O)O)NC(=O)[C@H](Cc1c[nH]c2ncccc12)NC(=O)[C@H](Cc1ccc(O)cc1)NC(=O)[C@@H](NC(=O)[C@H](CC(N)=O)NC(=O)[C@H](CCC(=O)O)NC(=O)[C@H](Cc1ccc(O)cc1)NC(C)=O)C(C)(C)C)C(=O)N(C)[C@@H](CO)C(N)=O
B8: R3072 (peptide)
peptide: Ac-[Nva][Nva]YEN[Tle]Y[Trp(7-aza)]EYP[Chg][Nva]K-NH2
SMILES: CCC[C@H](NC(C)=O)C(=O)N[C@@H](CCC)C(=O)N[C@@H](Cc1ccc(O)cc1)C(=O)N[C@@H](CCC(=O)O)C(=O)N[C@@H](CC(N)=O)C(=O)N[C@H](C(=O)N[C@@H](Cc1ccc(O)cc1)C(=O)N[C@@H](Cc1c[nH]c2ncccc12)C(=O)N[C@@H](CCC(=O)O)C(=O)N[C@@H](Cc1ccc(O)cc1)C(=O)N1CCC[C@H]1C(=O)N[C@H](C(=O)N[C@@H](CCC)C(=O)N[C@@H](CCCCN)C(N)=O)C1CCCCC1)C(C)(C)C
B9: R3077 (peptide)
peptide: Ac-[Nva][Nva]YEN[Tle]Y[Trp(7-aza)]EYP[Chg][Nva]K
modifications: not fully specified (residue 14, C-terminus); printed as Ac-Nvl-Nvl-Y-E-N-Tbg-Y-azaTrp-E-Y-P-Chg-Nvl-K-(PEG2000) NH2; also: PEG2000 at C-terminal Lys (K-(PEG2000) NH2), attachment unclear

What follows are binders tested against human C5 protein (human, UniProt P01031 19-673; P01031 678-1676) (assay: cell-based or functional assay).
For Ac-[Nva]C[Phg]T[Trp(7-aza)]EY[NMeS]AC[Nva]-NH2 (linker 2-10 via mXylyl(4)) [R3038], the “Avg. IC50, human hemolysis assay” value was 140 nM. In the case of B1, the “Avg. IC50, human hemolysis assay” value is reported as 13.9 nM. In the case of Ac-[Nva]C[Phg]T[Trp(7-aza)]EY[NMeS]HCA-NH2 (linker 2-10 via mXylyl(4)) [R3039], the “Avg. IC50, human hemolysis assay” value is reported as 240 nM. With Ac-[Nva]C[Phg]T[Trp(7-aza)]EY[NMeS]HC[Nva]P[Nva] (bridge 2-10) [R3040] the “Avg. IC50, human hemolysis assay” value was > 100000 nM. For Ac-[Nva]C[Phg]T[Trp(7-aza)]EY[NMeS]HC[Nva]-NH2 (bridge 2-10) [R3042], the “Avg. IC50, human hemolysis assay” value was > 100000 nM. For B2, the “Avg. IC50, human hemolysis assay” value was 53.5 nM. With B3 the “Avg. IC50, human hemolysis assay” value was > 3100 nM. With Ac-[Nva]C[Phg]T[Trp(7-aza)]EY[NMeS]HC[Nva]-NH2 (linker 2-10 via pXylyl) [R3050] the “Avg. IC50, human hemolysis assay” value was 42.9 nM. For [Nva]CY[NMeS][Phg][NMePhe(4-F)][NMeS]H[NMePhe(4-F)][Sar]C-NH2 (linker 2-11 via mXylyl(4)) [R3051], the “Avg. IC50, human hemolysis assay” value was > 100000 nM. With [Nva]CY[Tle][Phg]N[Sar]LC[Phg][NMeA]-NH2 (linker 2-9 via mXylyl(4)) [R3052] the “Avg. IC50, human hemolysis assay” value was > 100000 nM. With B4 the “Avg. IC50, human hemolysis assay” value was > 100000 nM. In the case of B5, the “Avg. IC50, human hemolysis assay” value is reported as 12.4 nM. With Ac-[Nva]C[Chg]T[Trp(7-aza)]EY[NMeS]HC[Nva]-NH2 (linker 2-10 via pXylyl) [R3058] the “Avg. IC50, human hemolysis assay” value was > 10000 nM. B6 was tested, and the “Avg. IC50, human hemolysis assay” value was 66.7 nM. For Ac-[Nva]C[Phg]T[Trp(7-aza)]EYPHC[Nva]-NH2 (linker 2-10 via pXylyl) [R3065], the “Avg. IC50, human hemolysis assay” value was 394 nM. For B7, the “Avg. IC50, human hemolysis assay” value was 267 nM. B8 was tested, and the “Avg. IC50, human hemolysis assay” value was 26.9 nM. With Ac-[Nva]C[Phg]T[Trp(7-aza)]E[Phe(4-F)][NMeS]HC[Nva]-NH2 (linker 2-10 via mXylyl(3)) [R3073] the “Avg. IC50, human hemolysis assay” value was 403 nM. Ac-[Nva]C[Phg]T[Trp(7-aza)]E[Tyr(OMe)][NMeS]HC[Nva]-NH2 (linker 2-10 via mXylyl(3)) [R3074] was tested, and the “Avg. IC50, human hemolysis assay” value was 308 nM. With [Nva]CY[NMeS][Phg][NMePhe(4-F)][NMeS]H[NMePhe(4-F)]GC-NH2 (linker 2-11 via mXylyl(3)) [R3075] the “Avg. IC50, human hemolysis assay” value was > 75000 nM. VVYENGYWEYPGVK (Ac-Nvl-Nvl-Y-E-N-Tbg-Y-azaTrp-E-Y-P-Chg-Nvl-K-(BODIPY-TMR-X) NH2) [R3076] was tested, and the “Avg. IC50, human hemolysis assay” value was 297 nM. In the case of B9, the “Avg. IC50, human hemolysis assay” value is reported as 81.7 nM. With PEG2000-[Nva][Nva]YEN[Tle]Y[Trp(7-aza)]EYP[Phg][Nva]-NH2 [R3078] the “Avg. IC50, human hemolysis assay” value was 568 nM. For Ac-[Nva]CKE[Phg]YC[NMeS][Tle]K[Trp(7-aza)]EY-NH2 (linker 2-7 via mXylyl″) [R3007], the “Avg. IC50, human hemolysis assay” value was 314 nM. In the case of Ac-[Nva]C[Phg]T[Trp(7-aza)]EY[NMeS]C[Nva]-NH2 (linker 2-9 via mXylyl(3)) [R3080], the “Avg. IC50, human hemolysis assay” value is reported as > 50000 nM. In the case of Ac-VC[Phg]T[Trp(7-aza)]EY[NMeS]AC[Nva]-NH2 (linker 2-10 via mXylyl(3)) [R3083], the “Avg. IC50, human hemolysis assay” value is reported as > 25000 nM. In the case of Ac-[Nva]C[Phg]T[Trp(7-aza)]EYSAC[Nva]-NH2 (linker 2-10 via mXylyl(3)) [R3084], the “Avg. IC50, human hemolysis assay” value is reported as > 100000 nM. In the case of Ac-[Nva]SYEC[Tle]Y[Trp(7-aza)]EYP[Chg]C[Nva]-NH2 (linker 5-13 via mXylyl(3)) [R3086], the “Avg. IC50, human hemolysis assay” value is reported as > 50000 nM. For Ac-[Nva]C[Phg(2-OMe)′]T[Trp(7-aza)]EY[NMeS]HC[Nva]-NH2 (linker 2-10 via mXylyl(3)) [R3087], the “Avg. IC50, human hemolysis assay” value was > 25000 nM. Ac-[Chg]C[Phg]T[Trp(7-aza)]EY[NMeS]AC[Nva]-NH2 (linker 2-10 via mXylyl(3)) [R3089] was tested, and the “Avg. IC50, human hemolysis assay” value was > 15000 nM. In the case of Ac-[Nva]CFT[Trp(7-aza)]EY[NMeS]AC[Nva]-NH2 (linker 2-10 via mXylyl(3)) [R3090], the “Avg. IC50, human hemolysis assay” value is reported as > 100000 nM. For Ac-[Nva]C[dChg]T[Trp(7-aza)]EY[NMeS]AC[Nva]-NH2 (linker 2-10 via mXylyl(3)) [R3093], the “Avg. IC50, human hemolysis assay” value was > 100000 nM.
